Patent US20250109182A1 (KITE PHARMA, published 2025)

What was measured:
[1] = target: TGF-β Receptor Type II (TGF-βRII), endogenous wild-type, in primary human T cells (human, UniProt P37173 23-567); assay: cell-based or functional assay
[2] = target: T1, recombinant human GPC3 (rhGPC3) fluorescently conjugated to DyLight 650 (human, UniProt P51654 25-559, limits assumed, fluorescently conjugated to DyLight 650); assay: flow cytometry; transduced T cells stained with rhGPC3-DyLight 650 at 1:200; gated live CD3+
T1 construct: Soluble staining reagent for flow cytometry, diluted 1:200; also called Glypican-3
Source text: (§1) Similar to the previous trials, CD3⁺ cells were isolated from primary human peripheral blood mononuclear cells (PBMCs) and transduced with the GPC3 CAR constructs above in the presence of polybrene and at a multiplicity of infection of two, based on expression titer in Jurkat cells. At the end of manufacturing, cells were frozen down in Cryostor® CS5 and stored in liquid nitrogen until thawing. Upon thawing, cells were rested in T cell culture medium overnight with 100 UI/mL IL-2, washed, and stained with Live/Dead™ Violet diluted at 1:1000, recombinant human GPC3 (rhGPC3) fluorescently conjugated to DyLight™ 650 diluted at 1:200, and anti-CD3 BV650 at 1:100 in PBS for 30 min at 4° C. The DNA of a pellet of 1×10⁵ cells was extracted in QuickExtract™ Buffer, frozen, and used to measure average vector copy number (VCN) by droplet digital PCR quantifying frequency of integrated virus per cell. Percentage CAR+ cells are defined as percentage of cells staining with rhGPC3 amongst Live/Dead™ negative, CD3⁺ positive cells, and Mean Fluorescence Intensity (MFI) of CAR⁺, and Vector copy number (VCN) are given in the example. […] Construct CAR 1 also has higher MFI of CAR⁺ cells, which could indicate more efficient expression or higher affinity of the CAR to rhGPC3.

[3] = target: T1, recombinant human GPC3 (rhGPC3) …; assay: flow cytometry; rhGPC3-DyLight 650 staining of CAR+ T cells
Source text: as §1

Sequence of TGF-β Receptor Type II (TGF-βRII), endogenous wild-type, in primary human T cells (P37173 23-567): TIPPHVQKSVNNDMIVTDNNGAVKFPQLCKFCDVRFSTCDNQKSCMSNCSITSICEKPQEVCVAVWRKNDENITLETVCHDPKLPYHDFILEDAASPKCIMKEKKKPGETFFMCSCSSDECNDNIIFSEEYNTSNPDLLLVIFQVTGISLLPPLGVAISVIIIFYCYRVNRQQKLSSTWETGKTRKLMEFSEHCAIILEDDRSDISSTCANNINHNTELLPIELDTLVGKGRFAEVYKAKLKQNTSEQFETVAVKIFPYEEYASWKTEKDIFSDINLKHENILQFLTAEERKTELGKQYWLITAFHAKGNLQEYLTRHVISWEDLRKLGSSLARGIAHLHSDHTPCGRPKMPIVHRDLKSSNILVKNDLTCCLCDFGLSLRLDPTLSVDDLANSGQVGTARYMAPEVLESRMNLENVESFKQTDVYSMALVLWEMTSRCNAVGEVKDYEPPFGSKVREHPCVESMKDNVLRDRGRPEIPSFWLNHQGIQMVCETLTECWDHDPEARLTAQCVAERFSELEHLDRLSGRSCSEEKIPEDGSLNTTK
T1 sequence (P51654 25-559 limits assumed): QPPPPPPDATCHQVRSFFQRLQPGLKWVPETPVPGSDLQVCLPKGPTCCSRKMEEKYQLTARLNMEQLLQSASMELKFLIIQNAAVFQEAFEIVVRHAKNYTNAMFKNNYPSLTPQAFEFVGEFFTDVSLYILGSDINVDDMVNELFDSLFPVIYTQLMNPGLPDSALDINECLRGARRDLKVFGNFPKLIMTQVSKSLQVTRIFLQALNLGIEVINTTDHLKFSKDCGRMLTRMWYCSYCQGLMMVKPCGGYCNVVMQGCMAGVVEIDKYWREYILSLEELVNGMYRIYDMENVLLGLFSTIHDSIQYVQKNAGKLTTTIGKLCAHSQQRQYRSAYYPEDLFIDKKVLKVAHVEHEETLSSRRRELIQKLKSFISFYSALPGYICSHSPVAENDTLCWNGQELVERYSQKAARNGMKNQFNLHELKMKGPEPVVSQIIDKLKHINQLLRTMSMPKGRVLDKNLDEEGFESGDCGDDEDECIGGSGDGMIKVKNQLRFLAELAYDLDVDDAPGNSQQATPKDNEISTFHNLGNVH

fold less induction of pSMAD2 and pSMAD3 versus PSMA CAR only, TGF-β1 stimulated T cells [1] [fold]	fold less induction of pSMAD2 versus CD19 CAR only, TGF-β1 stimulated T cells [1] [fold]	fold less induction of pSMAD2 versus GPC3 CAR only, 4-1BB co-stimulation, TGF-β1 stimulated T cells [1] [fold]	fold less induction of pSMAD3 versus CD19 CAR only, TGF-β1 stimulated T cells [1] [fold]	fold less induction of pSMAD3 versus GPC3 CAR only, 4-1BB co-stimulation, TGF-β1 stimulated T cells [1] [fold]	% CAR + (percentage of cells staining with rhGPC3) [2] [%]	MFI CAR + [3] [MFI]	Binder
~2	~4	~3	~2	~1.3			engineered, dominant-negative TGF-β receptor Type 1 (DN TGF-βRI) construct of SEQ ID NO: 10 (receptor) LQCFCHLCTKDNFTCVTDGLCFVSVTETTDKVIHNSMCIAEIDLIPRDRPFVCAPSSKTGSVTTTYCCNQDHCNKIELPTTVKSSPGLGPVELAAVIAGPVCFVCISLMLMVYIRVNRQ
					93.4	21100	Construct CAR 1 (GPC3 scFv + 4-1BB intracellular domain + CD3ζ intracellular domain), GPC3-CAR encoded by the codon-optimized sequence of SEQ ID NO: 51 (other, Chimeric antigen receptor expressed on transduced primary human CD3+ T cells; also called GPC3-CAR construct) DIVMTQSPDSLAVSLGERATINCKSSQSLLYSSNQKNYLAWYQQKPGQPPKLLIYWASSRESGVPDRFSGSGSGTDFTLTISSLQAEDVAVYYCQQYYNYPLTFGQGTKLEIKGSTSGSGKPGSGEGSTKGEVQLVESGGGLVQPGGSLRLSCAASGFTFNKNAMNWVRQAPGKGLEWVGRIRNKTNNYATYYADSVKARFTISRDDSKNSLYLQMNSLKTEDTAVYYCVAGNSFAYWGQGTLVTVSSGSTTTPAPRPPTPAPTIASQPLSLRPEACRPAAGGAVHTRGLDFACDIYIWAPLAGTCGVLLLSLVITLYCKRGRKKLLYIFKQPFMRPVQTTQEEDGCSCRFPEEEEGGCELRVKFSRSADAPAYQQGQNQLYNELNLGRREEYDVLDKRRGRDPEMGGKPRRKNPQEGLYNELQKDKMAEAYSEIGMKGERRRGKGHDGLYQGLSTATKDTYDALHMQALPPR
